Experimental data from US20150274802A1.
Several values for one entry are separate records, joined by “and”; a condition that tells them apart may be missing. Identical values can stand only once.

Columns and labels:
[1] = biological target: human IGF-1 receptor (human) (UniProt P08069); experiment: cell-based or functional assay
type A insulin receptor = type A insulin receptor (UniProt P06213); experiment: cell-based or functional assay
type B insulin receptor = type B insulin receptor (UniProt P06213); experiment: cell-based or functional assay
[2] = biological target: human insulin receptor (human) (UniProt P06213); experiment: competition SPA, [125I]insulin
[3] = biological target: human IGF-1 receptor (human) (UniProt P08069); experiment: competition SPA, [125I]IGF-1

Row | % Insulin Activity (in vitro, assay not named) [1] [%] | % Insulin Activity (in vitro, assay not named) (type A insulin receptor) [%] | % Insulin Activity (in vitro, assay not named) (type B insulin receptor) [%] | % insulin (in test) [2] | % native insulin activity (0.6 nM) [2] | IC50 [2] | % IGF-1 (in test) [3] [%] | % native IGF-1 activity (0.55 nM) [3] [%] | Substance
1 | < 0.1 | 1 | 0.5 | – | – | – | – | – | MIU-69: B2, A14-PEG10K di-PEGylated MIU-35 (ligand)
2 | < 0.1 | 0.4 | 0.1 | – | – | – | – | – | MIU-68: B2, B22-PEG10K di-PEGylated MIU-35 (ligand)
3 | – | – | – | 11.3% and 20.1% | 22.5% and 24.2% | 2.67 nM and 2.48 nM | 0.9 | 0.9 | IGF-1 A:In (1-17)-IGF-1 B(18-30) (from UniProt P05019 18-30) (ligand)
4 | < 0.1 | 0.2 | 0.1 | – | – | – | – | – | MIU-67: B2, C8-PEG10K di-PEGylated MIU-35 (ligand)
